The text below walks through data of the DeepSol protein solubility set.

The nature of this data set: soluble on expression in E. coli; label from the status in PepcDB or PDB records.
“MWRGKYSGGYQNRFVSAKSSGTSSLSDGKSMNNVPPPAALTVGNAPVPPPNRNILLSNRKEQEMKKEQEYANLMAYGSTSEKQSRRKRIYDDEYLEGGSDDEKPASSSSKLAADDDDEEDELDAFMAGIEKQASSDKKVSEQKEKDRKEGKDTEDPSKKGLGRADIDEEDMQESLFKFMEEYKEKHENDDEQLEYDEDGNIIWSWKKVIDPLPDIDHSQIQYQKFNKNFYEEHEDIKRLHYMDVIRLQNTMNLRVGGLKPPRPVCSFAHFSFDKLLMEAIRKSEYEQPTPIQAMAIPSALSGRDVLGIAKTGSGKTAAYLWPAIVHIMDQPDLKAGEGPVAVIVVPTRELAIQVFQEAKKFCKVYNINPICAYGGGSKWEQSNELQNEGAEMVVCTPGRIIDLVKMGATNFLRTTFLVFDEADRMFDMGFEAQVKSISDHVRPDRQCLMFSATFKQKVERLARDALVDPVRIVQGEVGEANADIEQKVFVMQNQDVKLHWLIRNLVEFASLGKVLIFVTKKLDSEDVAKKLKMKDFDIVLLHGDMLQAERNENLLKFRKKSQILVATDVAARGLDISEIRTVINFDMARDIDTHVHRIGRTGRAGHKGTAYTLVTEKDIEMVGHLVKNLESVSQEVPKPLMDLAMKSSWFRGQRAGNGGPSTGTQTRGRMGLGYTPKVRQVGGGATGAQFDPLKEQKSCRGGGNQTVDGMIRNAQSFATSSSSSSSSSSGPASGANRAQMLKSAFQKSFQTTFQRPTNESSNLPQQVASDPRPEWKKKVDELNAKIAQQQASSASGGSSSSSSSSKRSRWE”: the “soluble on expression in E. coli” value is recorded as “not soluble”. For the sequence “MWTVTKIRADYEGWWLFSDWPENIVEKYQYQDFDDMFKHYQQLINQCKVQFDNYVTGKYNIYAFYNNCDMNYCEDCEEDLQIFYSFIVLQNNEVYYKLPIIDLEHHHHHH”, the “soluble on expression in E. coli” value is “soluble”. Next, “MWYHRLSHLHSRLQDLLKGGVIYPALPQPNFKSLLPLAVHWHHTASKSLTCAWQQHEDHFELKYANTVMRFDYVWLRDHCRSASCYNSKTHQRSLDTASVDLCIKPKTIRLDETTLFFTWPDGHVTKYDLNWLVKNSYEGQKQKVIQPRILWNAEIYQQAQVPSVDCQSFLETNEGLKKFLQNFLLYGIAFVENVPPTQEHTEKLAERISLIRETIYGRMWYFTSDFSRGDTAYTKLALDRHTDTTYFQEPCGIQVFHCLKHEGTGGRTLLVDGFYAAEQVLQKAPEEFELLSKVPLKHEYIEDVGECHNHMIGIGPVLNIYPWNKELYLIRYNNYDRAVINTVPYDVVHRWYTAHRTLTIELRRPENEFWVKLKPGRVLFIDNWRVLHGRECFTGYRQLCGCYLTRDDVLNTARLLGLQA”: “not soluble”; “MYAMKEEDCLQTFHNLQDYQDQFHLHHHPQILPWSSTSLPSFDPLHFPSNPTRYSDPVHYFNRRASSSSSSFDYNDGFVSPPPSMDHPQNHLRILSEALGPIMRRGSSFGFDGEIMGKLSAQEVMDAKALAASKSHSEAERRRRERINTHLAKLRSILPNTTKTDKASLLAEVIQHMKELKRQTSQITDTYQVPTECDDLTVDSSYNDEEGNLVIRASFCCQDRTDLMHDVINALKSLRLRTLKAEIATVGGRVKNILFLSREYDDEEDHDSYRRNFDGDDVEDYDEERMMNNRVSSIEEALKAVIEKCVHNNDESNDNNNLEKSSSGGIKRQRTSKMVNRCYN”: “soluble”; “MYCIEEKIEKALGIKEASLVLKNCNIVNVFSSEIIRGDLAIDGDTIIGIGKYKGKTEIDLSNKYVAPGFIDSHVHIESSMVSPKEFARAVISRGTTTIIVDPHEIANVCGMDGIKYMMEETKNMPLDVFFMLSSCVPLEHHHHHH”: “not soluble”.

With “MYCPFCHNDQSRVIDSRVIDSGSAIRRRRECTQCKNRFTTVEKAQLLVVKRNGLTEPFSREKVIVGVRRACQGRDVSDDALKRLAQQVEERVRLHGSSQIHANEIGLAILEPLRELDEVAYLRFASVYKSFESADDFESEIRLMRRRDRSN”, the “soluble on expression in E. coli” value is “not soluble”. “MYDNTTDTKMQAERQKKSCTTVGGVLAYSVPTGLHRCDSAVTRVEEVHMAEMVEIPAALYGRGAVRVVPVDSTVRLDVKIPAALMRKLMIESNRSGVPLTKIVDRLLSAAIAQDSEQEEIRPR”: the “soluble on expression in E. coli” value is “not soluble”. Consider “MYFPAAIDTSLAAEDLGIWAPIDHQRIISLLTIGLGVLYHREKAISLEPLPETMLDEGKASPVPDISLRDNSASQTPIIIEVCHTNGLKGDLRKVIQLIDDGDYGIQEGFIYDYRAGTWVLYRSGGDGLTQSTSFSDILQLDLNQFL”, for which the “soluble on expression in E. coli” value is reported as “not soluble”. For “MYGRKLYNVDQTNVYASLMFETEFNKQNSFSAGLSFNYDAYDQHYRLENQTELPLIKAFAKEAVPGAYAQYTLNLNDQWMLMAGLRGDYSNEHGFFVTPRAHLKYNPNEYVHFRLSAGKGYRTNHVLAENNYLLSSSRKVEIAKGLDMEEAWNYGASVSTYVPVFGKTLNINAEYYYTDFLKQVVVDMDSNPHEVAFYNLDGRSYSHVFQVEASYPFFKGFTLTGAYRLTDAQTTYKGQRMEKPLTSKYKGLLTASYQTPLGIWQFDATLQLNGGGRMPSPYELADGQLSWERRYGSFEQLSAQITRYFRRWSVYIGGENLTNFKQKNPIIDAANPWGGNFDSTMIWGPVHGAKAYIGIRFNLARNE”, the “soluble on expression in E. coli” value is recorded as “not soluble”.

In the case of “MYGVLVIGAPGAGKSTFCAGLTDIFSQTKRPFLTINLDPANDTMAYAPDVNITEMITVNDVMDRLGLGPNGALKYCIETLGANCNWLLQKIEANHKKYLIIDCPGQLELYKSEGELWKVIRFLEKSGVRLCALHLADSLYCSDPSKFISVALSTLATMVTMEMPQVNCLSKADLFSEDGTYDLEFFSHLPDVNRLLDLLNEVPGLEKYRKLNEAICGVISDFDLVSFVPLAVENKESMMKVIQMVDAANGFSLTEQGDIRELILNSKA”, the “soluble on expression in E. coli” value is reported as “not soluble”.

Take “MYHGMNPSNGDGFLEQQQQQQQPQSPQRLLAVILWFQLALCFGPAQLTGGFDDLQVCADPGIPENGFRTPSGGVFFEGSVARFHCQDGFKLKGATKRLCLKHFNGTLGWIPSDNSICVQEDCRIPQIEDAEIHNKTYRHGEKLIITCHEGFKIRYPDLHNMVSLCRDDGTWNNLPICQGCLRPLASSNGYVNISELQTSFPVGTVISYRCFPGFKLDGSAYLECLQNLIWSSSPPRCLALEGGRPEHLFPVLYFPHIRLAAAVLYFCPVLKSSPTPAPTCSSTSTTTSLF”: the “soluble on expression in E. coli” value is listed as “soluble”.

On to “MYILVTTGSMGFKRLFDAIVKSVIGKRIVIQTGKIDPTIYRNQNVTTFSFDPDLEKWIANASLVITHQGKTAMEAVVMYRKPVIMVYNNDWKSATTLSDAKKYAEILGATFLSDPITWSDYNVLLEAIENANEPNVFDTGTPNLVKHVLSEL”, for which the “soluble on expression in E. coli” value is “soluble”.

In the case of “MYKILRTEKSWIEGSAVEQVKKLASLKGVENVIGYPDLHPGKTPIGISIITKDVIYPHLIGNDIGCSISLFETSELKRKFKVEKVMKTLQNSDLKNEIKKDFNLGTIGGGNHFAEFTLVDKILDESETTNFDKNKVYLLVHSGSRGLGEEILRKYIDYYSCQNGLAVNSEGFNNYISDYKKAVVFAKENRQLIAKNLCQLLNLKAFDLKIEAIHNGLELREDYIIHRKGAATALNKYVVIAGSRGDYSYIVKPINSSLETGFSIAHGAGRKWKRSGCKEKLQGKFSKKAIRNRSFSYNLICSNTNLVYEEAPEAYKNIDRVIDDLLSFNLIKVVARLKPLITYKDLEHHHHHH”, the “soluble on expression in E. coli” value is recorded as “not soluble”. Next, “MYLTIKSIMLLRKYLLVTESQVSKCGFHIVKKKGDVLYPKRTKYSKYRKGRCSRGCKPDGTKLGFGRYGTKSCKAGRLSYRAIEAARRAIIGHFHRAMSGQFRRNGKIWVRVFADLPITGKPTEVRMGRGKGNPTGWIARVSTGQIPFEMDGVSLANARQAATLAAHKPCSSTKFVQWSLEHHHHHH”: “not soluble”; “MYNALYLYCSEYKYEDSIMTISIRLPSDLETRLNNLAAKTGRTKSFYLREIIERGIEEAEDYYLASQVRERVRKGEGTFYSSEEVRKELGLDD”: “not soluble”; “MYNDEELITVQPEAFKALTPSKKFNETSNKLLDLAYSDDGNNLIVSAEDVVLVYDLRDGSKGKSIECKKYGVNCLEYLDTVKCVHSGPNDTTIRLLHLQKKSYVRYFDGHRMPVNFIRTNPKDREKFLSSSVDGEIRMFDTRTFENYGCLLAGHTPLIAFDPDGILFAVATKSDTIKLFDMRSFDLGPFQSFIITKTDNDEWSDIEFSPCGKFILISTTAGSVKWIDAFDGTLIHSFSQHKNPNVSFF”: “not soluble”. Next, “MYRPKDHGWVEVIVGPMYSGKSEELIRRIRRAKIAKQKIQVFKPEIDNRYSKEDVVSHMGEKEQAVAIKNSREILKYFEEDTEVIAIDEVQFFDDEIVEIVNKIAESGRRVICAGLDMDFRGKPFGPIPELMAIAEFVDKIQAICVVCGNPATRTQRLINGKPAFYDDPVVLIGAMESYEARCRKCHVVPQKKEVMAGDPLEHHHHHH”: “soluble”; “MYSERPPLDPHPLSPYMAWTGYRNRDAILDVLKGVFPRDKSDVLEFAAGSGMHAHYFAQHFAHLTFHPSDSDEDLLPHIEERTRQSGLSNVARPRRLDLTQPETWPAGEKFHAIYCINVCQVAPVSIVGGIMACSSRILADGGFLFIYGPFLDYGRFASDFDEEFDRLLRSTGEEGWSLKDIAELDRAAGRHGMRLDDEIDMPSNDFALIYRRA”: “not soluble”.

As to “MYTEYQPSRLLAPYIDNYWEFKGTPEYGMRIHILPDGCTDFIFTLGEAVSKVKEETLVMQPYRSYFVGPMTKYSELVTYAEFVHQFGVRFLPCGLSGFTKLPLHEFANYRISTNEMQAVFDSTFIERLCEQNDVRGRIQVVEEYLLAYLAHNYQPVDTQVAAAVNIINQSAGKRSVRSLMDEVCLCQRHFERKFKHNTGFTPKEYSRIVKFKNAVELLRNTTSVNLLTTAIDAGYYDLAHFSKEIKTLSGNTPSSFLSLTVPEDITLTYIEP”, the “soluble on expression in E. coli” value is recorded as “soluble”. Next, “MYTIAALYHFTRFADPADLKPALLDLCLAQGVKGTLLLAKEGINGTIAGPRAGIDAVLAHIRALPGCSDLEWKEATSDHPPFGKMKVRLKQEIVTMGQPDVDPRARVGHYVEPEDWNDLIRSDDVVLIDTRNDYEVAIGTFEGAIDPMTESFRDFPAWWEANKERFHNKRVAMFCTGGIRCEKSTNYLLGQGVEDVYHLKGGILRYLEEVPAENSTWQGECFVFDNRVSVGHGLVEGPHELCHGCRRPILPEDRNRPEYEHGVSCHLCIDETSEADKMRFRERQKQIALARARGEDHLATHLEHHHHHH”: “soluble”; “MYWERGLHMYKASAVVPTGYVRVGNTAPLVGEDTQRYASFWGDGYDVYRQLRWQQIPEKQRKAFKKAAKSKKTVMFAGREYGISKQNLSDVWDDFEDAMELKAFPCLSSLFLTKWHKNLYDSGLTKTSTALPRLSSKRTIL”: “not soluble”. With “NELSQERTARLNELQRALVMMDSDFRQIALRQTRTNGEEPSKKLLHWADYLLDSDNKGIMFARLGWHNPQQQFPRGEVTKVGYRIKDERLERVWWRYPDTPAGQEGVVTPLLSDVEELNVRFYDGKQWINEWSNELTLPAAISVELTLKDYGKIARTYLTPEGN”, the “soluble on expression in E. coli” value was “soluble”.
